Reference: US20060257383A1

Target: active MMP-2 (Calbiochem) (UniProt P08253)
Experiment: cell-based or functional assay

UniProt P08253, sequence (P08253 110-660 limits assumed): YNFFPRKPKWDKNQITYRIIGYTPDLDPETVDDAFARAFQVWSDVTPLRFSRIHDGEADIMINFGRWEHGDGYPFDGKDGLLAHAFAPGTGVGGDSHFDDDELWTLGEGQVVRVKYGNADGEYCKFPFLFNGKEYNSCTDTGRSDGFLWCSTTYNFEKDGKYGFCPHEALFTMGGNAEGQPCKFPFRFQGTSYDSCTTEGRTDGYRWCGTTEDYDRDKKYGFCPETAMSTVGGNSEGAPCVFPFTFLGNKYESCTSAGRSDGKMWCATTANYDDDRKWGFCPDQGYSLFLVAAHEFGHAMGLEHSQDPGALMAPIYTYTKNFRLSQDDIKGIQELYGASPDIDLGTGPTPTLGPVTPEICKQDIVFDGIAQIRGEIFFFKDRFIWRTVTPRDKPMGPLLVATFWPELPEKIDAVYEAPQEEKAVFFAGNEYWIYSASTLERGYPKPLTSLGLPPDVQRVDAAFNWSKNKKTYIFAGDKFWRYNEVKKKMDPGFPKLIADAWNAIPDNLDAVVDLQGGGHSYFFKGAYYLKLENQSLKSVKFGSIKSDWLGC

For “TIMP-1-HA (exogenous human TIMP-1 with a C-terminal HA epitope tag, secreted by stable NIKS clone INV TIMP-1-HA:28) (from UniProt P01033 24-207)”, which inhibition in MMP-2 protease activity compared to untransfected NIKS (EnzChek Gelatinase/Collagenase Assay, DQ gelatin) is on record?
The inhibition in MMP-2 protease activity compared to untransfected NIKS (EnzChek Gelatinase/Collagenase Assay, DQ gelatin) was less than 40%.
